# Source: patent publication US8518892B2, “Methods to treat symptoms of pathophysiology related to body mass” (Board of Supervisors of Louisiana State University and …, priority 2005, dated 2013)
# B1: Enho 1: human Enho 1, a 76 amino acid peptide having the sequence SEQ ID NO: 14 (peptide, listed as Homo sapiens)
# chain: MGAAISQGALIAIVCNGLVGFLLLLLWVILCWACHSRSADVDSLSESSPNSSPGPCPEKAPPPQKPSHEGSYLLQP
# Tests used:
# KKAy mice = assay: Enho 1 ip for 3 days in KKAy mice (Examples 16-18); type: in vivo, mouse
# Experimental: (§1) The effect of Enho-1 upon weight loss was tested over the course of 3 days using KKAy mice. The mice were fed Breeder Chow (Purina 5015) and were approximately 12-14 weeks of age at the start of the experiment. Six control mice received vehicle only while six test mice each received doses of either 900 nmol/kg/d or 9000 nmol/kg/d. The injections were given as 3 intraperitoneal (ip) injections at 0600, 1400 and 2000 h on days 1 and 2; over the 3 day period, the mice received a total of 7 injections. All animals were euthanized 5 hours after the last injection given the morning of the third day. Food was removed after the final injection.
# as §1, with “insulin and glucose” for “weight loss”, “while five or” for “while”, “nmol/kg/d, respectively.” for “nmol/kg/d.”, “ip” for “intraperitoneal (ip)”, “injection. The HOMA-IR for each treatment was calculated using the following formula: ((glucose mg/dL÷18)×(insulin ng/ml×25.05))÷22.5” for “injection.”
# as §1, with “liver weight, liver lipid content and liver TG” for “weight loss”, “while five or” for “while”, “nmol/kg/d, respectively.” for “nmol/kg/d.”, “ip” for “intraperitoneal (ip)”
# obese (ob/ob) mice = assay: Enho 1 ip for 8 days in obese (ob/ob) mice, serum lipids (Example 22); type: in vivo, mouse
# Experimental: The effect of Enho-1 upon liver serum lipid content was tested over the course of 8 days using obese (ob/ob) mice. The mice were fed Research Diets 12450 and were approximately 9-10 weeks of age at the start of the experiment. Control mice received vehicle only while test mice each received doses of either 90 nmol/kg/d, 900 nmol/kg/d or 9000 nmol/kg/d. The injections were given as 3 ip injections at 0800, 1200 and 1600 h for 7 days. On day 8, the mice were given the 0800 h injection and were sacrificed 1-3 h later, at which time blood samples were taken.
# Blood glucose levels were measured using an Accu-Chek glucometer. Insulin levels were measured by ELISA (Mercodia Mouse Insulin ELISA, ALPCO) while triglycerides were measured using a Triglyceride L-Type TG H kit (Wako Diagnostics).
# [1] = 900 nmol/kg/d ip, listed as Enho-1
# [2] = 9000 nmol/kg/d ip, listed as Enho-1
# [3] = 90 nmol/kg/d ip, listed as Enho-1
molecule,measurement,setting,value
B1,Blood glucose,KKAy mice; 900 nmol/kg/d ip,474 mg/dL
same,HOMA-IR,KKAy mice; 900 nmol/kg/d ip,167
same,HOMA-IR decrease as compared to the control group,KKAy mice; 900 nmol/kg/d ip,29%
same,Insulin,KKAy mice; 900 nmol/kg/d ip,5.7 ng/mL
same,Liver TG,KKAy mice; 900 nmol/kg/d ip,40 mg/g
same,Liver TG total,KKAy mice; 900 nmol/kg/d ip,66 mg/g
same,Liver lipid,KKAy mice; 900 nmol/kg/d ip,82 mg/g
same,Liver lipid total,KKAy mice; 900 nmol/kg/d ip,137 mg/g
same,Liver weight,KKAy mice; 900 nmol/kg/d ip,1.6 g
same,Liver weight % body weight,KKAy mice; 900 nmol/kg/d ip,5.0%
same,Weight (pre-treatment),KKAy mice; 900 nmol/kg/d ip,35.3 g
same,Weight (termination),KKAy mice; 900 nmol/kg/d ip,33.0 g
same,blood glucose levels decrease,KKAy mice; 900 nmol/kg/d ip,approximately 10%
same,insulin levels reduction,KKAy mice; 900 nmol/kg/d ip,about 22%
same,liver TG reduction as compared to the control group,KKAy mice; 900 nmol/kg/d ip,32%
same,Blood glucose,KKAy mice; [1],474 ± 29 mg/dL
same,HOMA-IR,KKAy mice; [1],167 ± 18
same,HOMA-IR decrease as compared to the control group,KKAy mice; [1],(↓ 29%)
same,Insulin,KKAy mice; [1],5.7 ± 0.5 ng/mL
same,Liver TG,KKAy mice; [1],40 ± 8 mg/g
same,Liver TG total,KKAy mice; [1],66 ± 13 mg/g
same,Liver lipid,KKAy mice; [1],82 ± 9 mg/g
same,Liver lipid total,KKAy mice; [1],137 ± 18 mg/g
same,Liver weight,KKAy mice; [1],1.6 ± 0.1 g
same,Liver weight % body weight,KKAy mice; [1],5.0 ± 0.2%
same,Weight (pre-treatment),KKAy mice; [1],35.3 ± 1.1 g
same,Weight (termination),KKAy mice; [1],33.0 ± 1.0 g
same,Blood glucose,KKAy mice; 9000 nmol/kg/d ip,480 mg/dL
same,HOMA-IR,KKAy mice; 9000 nmol/kg/d ip,213
same,HOMA-IR decrease as compared to the control group,KKAy mice; 9000 nmol/kg/d ip,9%
same,Insulin,KKAy mice; 9000 nmol/kg/d ip,7.0 ng/mL
same,Liver TG total,KKAy mice; 9000 nmol/kg/d ip,53 mg/g
same,Liver lipid,KKAy mice; 9000 nmol/kg/d ip,87 mg/g
same,Liver lipid total,KKAy mice; 9000 nmol/kg/d ip,143 mg/g
same,Liver weight,KKAy mice; 9000 nmol/kg/d ip,1.6 g
same,Liver weight % body weight,KKAy mice; 9000 nmol/kg/d ip,4.9%
same,Weight (pre-treatment),KKAy mice; 9000 nmol/kg/d ip,35.6 g
same,Weight (termination),KKAy mice; 9000 nmol/kg/d ip,33.1 g
same,liver TG reduction as compared to the control group,KKAy mice; 9000 nmol/kg/d ip,46%
same,Liver TG,"KKAy mice; 9000 nmol/kg/d ip, P < 0.05 vs control",32 mg/g
same,Liver TG,"KKAy mice; 9000 nmol/kg/d ip, P < 0.05 vs control, listed as Enho-1",32 ± 5 mg/g
same,Blood glucose,KKAy mice; [2],480 ± 38 mg/dL
same,HOMA-IR,KKAy mice; [2],213 ± 37
same,HOMA-IR decrease as compared to the control group,KKAy mice; [2],(↓ 9%)
same,Insulin,KKAy mice; [2],7.0 ± 0.8 ng/mL
same,Liver TG total,KKAy mice; [2],53 ± 11 mg/g
same,Liver lipid,KKAy mice; [2],87 ± 6 mg/g
same,Liver lipid total,KKAy mice; [2],143 ± 17 mg/g
same,Liver weight,KKAy mice; [2],1.6 ± 0.1 g
same,Liver weight % body weight,KKAy mice; [2],4.9 ± 0.3%
same,Weight (pre-treatment),KKAy mice; [2],35.6 ± 0.6 g
same,Weight (termination),KKAy mice; [2],33.1 ± 0.4 g
same,TG (blood triglyceride level),obese (ob/ob) mice; 90 nmol/kg/d ip,19.4 mg/dL
same,TG decrease in comparison with the control,obese (ob/ob) mice; 90 nmol/kg/d ip,34%
same,TG (blood triglyceride level),obese (ob/ob) mice; [3],19.4 ± 2.2 mg/dL
same,TG decrease in comparison with the control,obese (ob/ob) mice; [3],(↓ 34%)
same,TG (blood triglyceride level),obese (ob/ob) mice; 900 nmol/kg/d ip,18.4 mg/dL
same,TG decrease in comparison with the control,obese (ob/ob) mice; 900 nmol/kg/d ip,38%
same,TG (blood triglyceride level),obese (ob/ob) mice; [1],18.4 ± 2.3 mg/dL
same,TG decrease in comparison with the control,obese (ob/ob) mice; [1],(↓ 38%)
same,TG (blood triglyceride level),obese (ob/ob) mice; 9000 nmol/kg/d ip,22.0 mg/dL
same,TG decrease in comparison with the control,obese (ob/ob) mice; 9000 nmol/kg/d ip,26%
same,TG (blood triglyceride level),obese (ob/ob) mice; [2],22.0 ± 2.2 mg/dL
same,TG decrease in comparison with the control,obese (ob/ob) mice; [2],(↓ 26%)
